Source: US20240043505A1 (UNIVERSITY OF PITTSBURGH OF THE COMMONWEALTH SYSTEM OF …, published 2024)
“And” between values parts separate entries of the source, which are not always exact repeats. Equal values may be shown once.

What was measured:
[1] = target: SARS-CoV-2 spike glycoprotein (Wuhan-Hu-1 strain) on pseudotyped virus particles (SARS-CoV-2 (Wuhan-Hu-1 strain), UniProt P0DTC2 14-1273); assay: cell-based or functional assay
[2] = target: SARS-CoV-2 spike glycoprotein on authentic virus (Munich strain) (SARS-CoV-2 (Munich strain), UniProt P0DTC2 14-1273); assay: cell-based or functional assay
[3] = target: T1, SARS-CoV-2 spike receptor-binding domain (RBD) (SARS-CoV-2, UniProt P0DTC2 319-541); assay: indirect ELISA, RBD coated on plate, 4PL fit
[4] = target: T2, SARS-CoV-2 Munich strain spike glycoprotein on authentic virus (SARS-CoV-2); assay: cell-based or functional assay
[5] = target: T3, SARS-CoV-2 (Wuhan-Hu-1 strain) spike glycoprotein on pseudotyped virus particles (SARS-CoV-2, UniProt P0DTC2 14-1273); assay: cell-based or functional assay
[6] = target: T3, SARS-CoV-2 (Wuhan-Hu-1 strain) spike …; assay: cell-based or functional assay; remark: listed apart in the source
[7] = target: SARS-CoV-2 spike glycoprotein on pseudotyped SARS-CoV-2 (Wuhan-Hu-1 strain) particles (SARS-CoV-2, UniProt P0DTC2 14-1273); assay: cell-based or functional assay
[8] = target: SARS-CoV-2 spike glycoprotein on authentic SARS-CoV-2 (Munich strain, SARS-CoV-2/München-1.1/2020/929) (SARS-CoV-2, UniProt P0DTC2 14-1273); assay: cell-based or functional assay
SARS-CoV RBD = SARS-CoV RBD (SARS-CoV, UniProt P59594 306-527)
[9] = target: SARS-CoV-2 spike receptor-binding domain (RBD), recombinant (SARS-CoV-2, UniProt P0DTC2 319-541); assay: SPR (Biacore 3000), RBD immobilized on the chip, Nb as analyte, 1:1 Langmuir fit
[10] = target: T1, SARS-CoV-2 spike receptor-binding …; assay: SPR (Biacore 3000), RBD immobilised, Nb as analyte, 1:1 Langmuir fit
[11] = target: T2, SARS-CoV-2 Munich strain spike …; assay: cell-based or functional assay; remark: listed apart in the source

Row | Binder | Pseudo-neutralization IC50 (Luciferase) [1] [nM] | Authentic virus PRNT IC50 [2] [nM] | ELISA affinity [3] [nM] | Authentic virus PRNT IC50 [4] [nM] | Pseudo-neut IC50 Luciferase [5] [nM] | further results
1 | Nb9 (VHH) VHH: HVQLVESGGGLVQTGGSLRLSCAFSGYTFSTFPTAWFRQAPGKEREFVAGIRWNGGSRDYTEYADFVKGRFTISRDNAKNMIYLQMISLKPEDTALYYCAASHGVVDGTSVNGYRYWGQGTQVTVSS | 1.5 | 1.72 | 0.89 |  |  | 
2 | Nb34 (VHH) VHH: DVQLVESGGGLVQAGGSLRLSCAASGFTFSNYVMYWGRQAPGKGREWVSGIDSDGSDTAYASSVKGRFTISRDNAKNTLYLQMNNLKPEDTALYYCVKSKDPYGSPWTRSEFDDYWGQGTQVTVSS [Nb34, listing 1 of 2 here] | 2 | 1.12 | 0.47 |  |  | 
3 | Nb34 (VHH) VHH: DVQLVESGGGLVQAGGSLRLSCAASGFTFSNYVMYWGRQAPGKGREWVSGIDSDGSDTAYASSVKGRFTISRDNAKNTLYLQMNNLKPEDTALYYCVKSKDPYGSPWTRSEFDDYWGQGTQVTVSS [Nb34, listing 2 of 2 here] |  |  |  | 1.12 | 1.99 | neutralization of SARS-CoV-2 (assay not stated) [6]: < 150 ng/mL
4 | Nb105 (VHH) VHH: HVQLVESGGGLVQAGGSLRLSCAVSGRTFSTYGMAWFRQAPGKERDFVATITRSGETTLYADSVKGRFTISRDNAKNTVYLQMNSLKIEDTAVYYCAVRRDSSWGYSRDLFEYDYWGQGTQVTVSS [Nb105, listing 1 of 2 here] |  |  |  |  |  | Pseudo-neutralization IC50 (Luciferase) [7]: 5 nM; Authentic virus PRNT IC50 [8]: 5.1 nM
5 | Nb105 (VHH) VHH: HVQLVESGGGLVQAGGSLRLSCAVSGRTFSTYGMAWFRQAPGKERDFVATITRSGETTLYADSVKGRFTISRDNAKNTVYLQMNSLKIEDTAVYYCAVRRDSSWGYSRDLFEYDYWGQGTQVTVSS [Nb105, listing 2 of 2 here] |  |  |  | 5.07 | 5.11 | IC50 (SARS-CoV RBD): 3.76 nM; neutralization of SARS-CoV-2 (assay not stated) [6]: < 150 ng/mL
6 | Nb89 (VHH) VHH: HVQLVESGGGLVQAGGSLRLSCAASGGTFTTFRMAWFRQTPGKEREFVAASSWGFVNYADPVKGRFTISRDNAKNTVYLEMSSLKTEDTAVYYCAARNPGTGQYDYWGQGTQVTVSS [Nb89, listing 1 of 3 here] |  |  |  |  |  | Pseudo-neutralization (GFP) [7]: < 0.5 nM; Pseudo-neutralization IC50 (Luciferase) [7]: 0.129 nM; Authentic virus PRNT IC50 [8]: 0.154 nM; Kd [9]: 0.108 nM; koff [9]: 0.000624 s⁻¹
7 | Nb89 (VHH) VHH: HVQLVESGGGLVQAGGSLRLSCAASGGTFTTFRMAWFRQTPGKEREFVAASSWGFVNYADPVKGRFTISRDNAKNTVYLEMSSLKTEDTAVYYCAARNPGTGQYDYWGQGTQVTVSS [Nb89, listing 2 of 3 here] |  |  |  | 0.154 | 0.133 | Pseudo-neutralization (GFP) [5]: < 0.5 nM; IC50, pseudovirus assay [6]: 2 ng/ml and 0.129 nM
8 | Nb89 (VHH) VHH: HVQLVESGGGLVQAGGSLRLSCAASGGTFTTFRMAWFRQTPGKEREFVAASSWGFVNYADPVKGRFTISRDNAKNTVYLEMSSLKTEDTAVYYCAARNPGTGQYDYWGQGTQVTVSS [Nb89, listing 3 of 3 here] |  |  | 1.09 |  |  | kon [10]: 5.78e+06 M⁻¹ s⁻¹
9 | Nb20 (VHH) VHH: QVQLVESGGGLVQAGGSLRLSCAVSGAGAHRVGWFRRAPGKEREFVAAIGASGGMTNYLDSVKGRFTISRDNAKNTIYLQMNSLKPQDTAVYYCAARDIETAEYIYWGQGTQVTVSS | 0.114 | 0.0422 |  |  |  | Pseudo-neutralization (GFP) [1]: < 0.5 nM
10 | Nb21 (VHH) VHH: QVQLVESGGGLVQAGGSLRLSCAVSGLGAHRVGWFRRAPGKEREFVAAIGANGGNTNYLDSVKGRFTISRDNAKNTIYLQMNSLKPQDTAVYYCAARDIETAEYTYWGQGTQVTVSS [Nb21, listing 1 of 2 here] |  |  |  | 0.022 | 0.0495 | Pseudo-neutralization (GFP) [5]: < 0.5 nM; IC50, SARS-CoV-2 PRNT [11]: 0.021 nM; IC50, pseudovirus assay [6]: 0.7 ng/ml and 0.045 nM
11 | Nb11 (VHH) VHH: HVQLVESGGGLVQAGGSLRLSCAVSGASAERVGWFRRAPGKEREFVAAIGANGGSTNYLDSVKGRFTISRDNAKNTVYLQMNSLKPQDTAVYYCAARNLETFDYTYWGRGTQVTVSS | 1 | 0.78 | 0.39 |  |  | 
12 | Nb78 (VHH) VHH: QVQLVESGGGLVQAGGSLRLSCAISGASANRVGWFRRAPGKEREFVAAIGASGGMTNYLDSVKGRFTISRDNAKNTVYLQMNSLKPQDTAVYYCAARNIETAEYTYWGQGTQVTVSS | 0.509 | 0.766 | 0.61 |  |  | 
13 | Nb21 (VHH) VHH: QVQLVESGGGLVQAGGSLRLSCAVSGLGAHRVGWFRRAPGKEREFVAAIGANGGNTNYLDSVKGRFTISRDNAKNTIYLQMNSLKPQDTAVYYCAARDIETAEYTYWGQGTQVTVSS [Nb21, listing 2 of 2 here] | 0.038 | 0.0448 |  |  |  | Pseudo-neutralization (GFP) [1]: < 0.5 nM
14 | Nb95 (VHH) VHH: QVQLVESGGGLVQAGGSLRLSCAASGRTFSSYSMGWFRQAQGKEREFVATINGNGRDTYYTNSVKGRFTISRDDATNTVYLQMNSLKPEDTAIYYCAADKDVYYGYTSFPNEYEYWGQGTQVTVSS [Nb95, listing 1 of 2 here] |  |  |  |  |  | Pseudo-neutralization IC50 (Luciferase) [7]: 10 nM; Authentic virus PRNT IC50 [8]: 5.11 nM
15 | Nb95 (VHH) VHH: QVQLVESGGGLVQAGGSLRLSCAASGRTFSSYSMGWFRQAQGKEREFVATINGNGRDTYYTNSVKGRFTISRDDATNTVYLQMNSLKPEDTAIYYCAADKDVYYGYTSFPNEYEYWGQGTQVTVSS [Nb95, listing 2 of 2 here] |  |  |  | 5.11 | 10 | IC50 (SARS-CoV RBD): 31.6 nM; neutralization of SARS-CoV-2 (assay not stated) [6]: < 150 ng/mL
16 | Nb17 (VHH) VHH: HVQLVESGGGLVQAGGSLRLSCAASGSIFSSNAMSWYRQAPGKQRELVASITSGGNADYADSVKGRFTISRDKNTVYPEMSSLKPADTAVYYCHAVGQEASAYAPRAYWGQGTQVTVSS [Nb17, listing 1 of 2 here] |  |  |  | 1.5 | 1.11 | IC50, virus neutralization in vitro (assay not stated) [6]: ~0.025 µg/mL; neutralization of SARS-CoV-2 (assay not stated) [6]: ≤ 100 ng/mL
17 | Nb17 (VHH) VHH: HVQLVESGGGLVQAGGSLRLSCAASGSIFSSNAMSWYRQAPGKQRELVASITSGGNADYADSVKGRFTISRDKNTVYPEMSSLKPADTAVYYCHAVGQEASAYAPRAYWGQGTQVTVSS [Nb17, listing 2 of 2 here] | 1.1 | 1.5 |  |  |  | 
18 | Nb16 (VHH) VHH: DVQLVESGGGLVQAGESLRLSCAASGDMFSSNAMAWYRQAPGKQRELVASITSGGNTNYADSVKGRFTISRDNAKNTVYLQMDSLKPEDTAVYYCNGVAYDYSWGRPRNFWGQGTQVTVSS | 1.57 | 3.16 | 0.37 |  |  | 
